Test results taken from the supplement of paper PMC9170038.

Tests used:
[1] = test system: MS2 coat protein; assay: apparent KD of MS2 coat protein, switch ON state; designed switch direction (-1 OFF switch, 1 ON switch): -1; higher = weaker reporter binding; conditions: FMN input: 0 or 200 uM; Eterna round: R93 (includes R88 designs)
Summary of the method: (§1)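 Designed RNA switches were transcribed on-chip from Illumina sequencing clusters. SNAP-549-labelled MS2 coat protein was titrated onto them in twofold steps from 0.7 or 1.5 nM to 3 µM in 100 mM Tris-HCl pH 7.5, 80 mM KCl, 4 mM MgCl2, either without or with constant ligand. Apparent KD reflects the per-design median of normalised cluster binding-curve fits.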

[2] = test system: MS2 coat protein; assay: apparent KD of MS2 coat protein, switch OFF state (with FMN for OFF switches, without FMN for ON switches); designed switch direction (-1 OFF switch, 1 ON switch): -1; higher = weaker reporter binding; conditions: FMN input: 0 or 200 uM; Eterna round: R93 (includes R88 designs)
Summary of the method: as §1

Sequence	apparent KD of MS2 coat protein [1] [nM]	apparent KD of MS2 coat protein [2] [nM]
AAACCACAUGAGGAUCACCCAUGUGAGGAUAUGAACGAAAAUAAAUAAAAAUAAAAGUUCAGAAGGCACAAAAA [66%, Wbt, 12]	21.3	23.6
AGUUGGCGAGGAUAUACAUGAGGAUCACCCAUGUAAAAUAAAUAAAAAAUAAGGGAAAGUAGAAGGCGCUGACA [73%, Moding Norbert Elias, 14]	46.5	112
AAGAAGCAAGGAUAUACAUGAGGAUCACCCAUGUAAAAGAAAGAAAAGGGAAAGAAAAGUAGAAGGUGCGAAAA [Ruby 70]	29.9	51.9
AAAAAGGGAGGAUAUACAUGAGGAUCACCCAUGUGAAAGACGAAAAAGAGUCUAAAGGGUAGAAGGCCCAAAAA [65%, Moding Exclusion3-cac2, 10]	51.1	49.2
AAAUUAGGAGGAUAUACAUGAGGAUCACCCAUGUGACGAUGUUACUGCAUGAAGCCAAGUAGAAGGUCUAAGAA [Lacelaatdi]	24.7	49.5
AAGAAGUGAGGAUAUGUAUCAGUAUAGUUGCCUAUACUGAUGUAGAAGGCACAUGAGGAUCACCCAUGUCCUAA [Exclusion4-cac1]	21.7	30.8
AAGAACGUAGGAUAUACUAAAGAAAUGAAAAGAAAUAAAGAACAUGAGGAUCACCCAUGUAGAAGGACGAAGAA [Nebdjefare]	29.1	25.2
AAGAAACAUGAGGAUCACCCAUGUGAGGAUAUACAAAAGAAAAGAAAAGAAAGAAGAAGUAGAAGGCACAAAGG [Djedkare Shemai]	22.5	20.3
AGAUAGUCAGGAUAUACGAACAAGAAAAAAGACGAGAACGGACAUGAGGAUCACCCAUGUAGAAGGGACAAGAA [Diamond 12]	63	37
AAAGAUGCAGGAUAUACAUGAGGAUCACCCAUGUUAGACCUGAAAAGGGAAAAAGAAAGUAGAAGGGCAUAAAA [Ex 3 May 32]	13.4	17
AGAAAGCGAGGAUAUACUAAGAAACCUCAAAGAAAGAAGAAACAUGAGGAUCACCCAUGUAGAAGGCGCAAAGA [JR_Exc002_Sub002]	28.3	70.8
AAGAAACAUGAGGAUCACCCAUGUGAGGAUAUUCAAGAAAGAAAGAAAGAAAGAAGAAGAAGAAGGCACAAAGG [Lucius Seius Strabo]	29	32
AAAACUGGAGGAUAUACAUGAGGAUCACCCAUGUGUGGAUGAGCUGUGUCGGCGUCAGGUAGAAGGCCACAAAA [Gilly Gone Silly 35 - Jieux - Exclusion 3]	36.3	43.1
AAAUUGUCAGGAUAUCGUAUAACUGGGAAAACCAGGAGAUACGAGAAGGGACAUGAGGAUCACCCAUGUAAAAC [May 94]	51.6	65.8
AGCUAGUCAGGAUAUACGAAAAUGUCAGAGGCAGUAAGGGAACAUGAGGAUCACCCAUGUAGAAGGGACUAGCA [Diamond 40]	36.1	87.7
AGCUCGGUAGGAUAUACAAAAUGAUUGCGAAAGCAAUCAACACAUGAGGAUCACCCAUGUAGAAGGACCGAGCA [Mat - Exclusion 2 - JL-Eli mod - D42]	15.2	20
GAAGAACAUGAGGAUCACCCAUGUCAGGAUAUACAGAAGGGAAUAAUAUAAUCUGGAAGUAGAAGGGACAAGAA [Ex 1 May 45]	31.8	51.4
AACAGUACAGGAUAUACAUGAGGAUCACCCAUGUAAAGGGAAUAAAACUAAAAUAAAAGUAGAAGGGUACUGGA [Moding Maslow revisited (73) 20]	50.9	92.6
GGAAAACAUGAGGAUCACCCAUGUGAGGAUAUCGAUGUCCAAAAAAGAGUGCGGGACUCGAGAAGGCACUUGGA [salish99-ex1-43]	49.3	32.5
AACAGUACAGGAUAUACAUGAGGAUCACCCAUGUGACAGAAAUAAAACAAAAAUAAAAGUAGAAGGGUACUGGA [Ruby 42]	31	61.2

Sequence	apparent KD of MS2 coat protein [1] [nM]	apparent KD of MS2 coat protein [2] [nM]
AUCUUGUCAGGAUAUGACUACAUAAAAAAAAAAAAAUGUAGUCAGAAGGGACAUGAGGAUCACCCAUGUACCAA [HSL_Exclusion 4 64% 2]	29.1	24.1
AAAAAGGGAGGAUAUACAUGAGGAUCACCCAUGUAUCAGACGAAAAAGAGUCUGAAAAGUAGAAGGCCCAAAAA [65%, Moding Exclusion3-cac2, 6]	15.5	20.8
AAAAAGCGAGGAUAUACAUGAGGAUCACCCAUGUCAAACGGUAAGACCGCAGGAAACAGUAGAAGGCGCAAAAA [Exclusion3-03]	58.3	91.1
AACUGGUGAGGAUAUCUGGAUAGGAAAAAGAAAACCUAUCCAGAGAAGGCACAUGAGGAUCACCCAUGUAAAAA [JL cataway mod 9]	56	51.9
AACAUACAUGAGGAUCACCCAUGUCAGGAUAUGCCGGGUUAGAACCAACUAAAAAAACGUAGAAGGGACAAAAA [Bilbo Confounded 5 - Jieux - Exclusion 1]	63.3	46.7
AAGAAGGAAGGAUAUACAUGAAAGAAAGAAAAGAAAAGAAAACAUGAGGAUCACCCAUGUAGAAGGUCCUAGAA [EteRNA is fun!]	39.6	80.5
AAAAAACAUGAGGAUCACCCAUGUGAGGAUAUGCGAAAAAAAAAAUAAAAAAAAAAAAGCAGAAGGCACAAAAA [LROPPY Exclusion 1 - v05_deltaG=1.64]	37.6	58.5
AAAGGACGAGGAUAUACAUGAGGAUCACCCAUGUAAAAAACGUAAUAAAAUAACUUAUGUAGAAGGCGUCCAAA [Mat - Exclusion 3 - Eli mod - D98]	26.3	214
AAAAAUGGAGGAUAUACAUGAGGAUCACCCAUGUGUGACUAUACUAAGCGCUCCUCAGGUAGAAGGCCAAAAAA [Gilly Gone Silly 16 - Jieux - Exclusion 3]	83.5	99.5
GUAAACCUAGGAUAUACAUGAGGAUCACCCAUGUAAAAUUUAAUAAAAAGAAAAUCAAGUAGAAGGAGGUAGAU [JR_Exc003_Sub1224]	25.4	29.3
AAAAAGUGAGGAUAUGAAAAUAAAAAAAACAAACAAAUAAAUCAGAAGGCACAUGAGGAUCACCCAUGUAAAAA [JR_Exc004_Sub1202]	36.8	26.2
AAAGUGUGAGGAUAUGUCAAAGGUCACGAAAGUGACAAAGGACAGAAGGUACAUGAGGAUCACCCAUGUAAAAA [65% + different segment]	39.8	32
AAGAACUCAGGAUAUACAUGAAAGAAAGAAAAGAAAAGAAAACAUGAGGAUCACCCAUGUAGAAGGGAGAAGAA [EteRNA is fun!]	39.7	30.6
AAAAGGUGAGGAUAUAUGAAAAAAAAAAAAAAAAAAAAAAAAUAGAAGGCACAUGAGGAUCACCCAUGUAAAAA [LROPPY Exclusion 4 - v04_ on a whim]	36.9	27.2
UAAAGACAUGAGGAUCACCCAUGUGAGGAUAUCGGAGAUAACAGAACAUCAAGUUCAACGAGAAGGCACAGAAA [JR_Exc001_Sub401]	47.4	94.7
GCUGGCCAAGGAUAUACAUGAGGAUCACCCAUGUGAGAGAAAAAAGUGAGAAAGAAAAGUAGAAGGUGGUUAGG [salish99-ex3-114]	43.9	41
AACAGGAGAGGAUAUACAUGAGGAUCACCCAUGUAGGAAACAAGCAGAGUACCAAAAAGUAGAAGGCUCAUGGA [Ruby 32]	28.1	43.1
AAAAAACAUGAGGAUCACCCAUGUGAGGAUAUCGAGAAGAAGAAGAAGAAGAAGAGAACGAGAAGGCACAAAAA [Exclusion 1 - G's]	25.8	29.9
AAACUACUAGGAUAUACAACGGUGUCCUAACUACUAAGAAGACAUGAGGAUCACCCAUGUAGAAGGAGUAGUGA [Sosogeen]	50.3	37.8
UUGGGACAUGAGGAUCACCCAUGUAAGGAUAUUGGCGCGCCGGCUCUGUCUGUUCCGCCGAGAAGGUACACGUU [Exclusion I]	45.5	102
